The RNAGym collection of RNA variant scans (doi:10.1073/pnas.2313332121)

B1: TPR t1 (parent)
chain: GACCAAUCUGCCCUCAGAGCUCGAGAACAUCUUCGGAUGCAGAGGAGGCAGGCUUCGGUGGCGCGAUAGCGCCAACGUCCUCAACCUCCAAUGCAUCCCACCACAUGAUGAUGCCUGAAGAGCCUUGGUUUUUUG

Variants of: B1
Test: polymerase ribozyme fitness, log enrichment relative to wild type (log ratio); higher = more active; in vitro selection for triplet polymerase activity
How it was run: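 In triplicate, a single round of in vitro selection was run on each mutant library, PCR-built and transcribed, covering one subunit of a heterodimeric triplet polymerase ribozyme. Frozen incubation at −7 °C followed annealing with a biotinylated primer, partner subunit and triplets, and extended constructs were then gel-excised, streptavidin-captured and taken through RT-PCR. Fitness is the logarithm of genotype enrichment over wild-type enrichment, from inverse-variance-weighted replicate averages of Illumina-sequenced inputs and outputs. […] only genotypes with ≥10 input reads and ≥1 read per output were kept.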

Variant	polymerase ribozyme fitness (log ratio)
GACCAAUCUGCCCUCAGAGCUCGAGAACAUCUUCGGAUGCAGAGAAGGCAGGCUUCGGUGGCGCGAUAGCGCCAACGUCCUCAACCUCCAAUGCAUCCCACCAUAUGAUGAUGCCUGAAGAGCCUUGGUUUUUUG [G45A C104U]	-0.463
GACCAAUCUGCCCUCAGAGCUCGAGAACAUCUUCGGAUGCAGAGAAGGCAGGCUUCGGUGGCGCGAUAGCGCCAACGUCCUCAACCUCCAAUGCAGCCCACCACAUGAUGAUGCCUGAAGAGCCUUGGUUUUUUG [G45A U96G]	-1.51
GACCAAUCUGCCCUCAGAGCUCGAGAACAUCUUCGGAUGCAGAGAAGCCAGGUUUCGGUGGUGCGAUAGCGCCAACGUCCUCAACCUCCAAUGCAUCCCACUACAUGAUGAUGCCUGAAGAGCGUUGGUUCUUUG [G45A G48C C53U C62U C102U C124G U131C]	-1.71
GACCAAUCUGCCCUCAGAGCUCGAGAACAUCUUCGGAUGCAGAGAAGUAAGGUUUCGGUGGCGCGAUACCGCCAACGUCCUCAACCUCCAAUGCAUCCCACCACAUGAUGAUGCGUGAAGAGCCUUGGUUUUUUG [G45A G48U C49A C53U G69C C115G]	-4.6
GACCAAUCUGCCCUCAGAGCUCGAGAACAUCUUCGGAUGCAGAGAAGGCAGGCUUCGGUGCCGCGAUAGCGCCAACGUCCUCAACCUCCAAUGCAUCCCACCACAUGAUGAUGCCUGAAGAGCCUUGGUUUUUUG [G45A G61C]	-1.97
GACCAAUCUGCCCUCAGAGCUCGAGAACAUCUUCGGAUGCAGAGAAGGCAGGCUUCGGUGGCGCGAUAGCGCCAACGUCCUCAACCUCCAAUGCAUCCCACCACAUGAUGAUUCCUGAAGAGCCUUGGUUUUUUG [G45A G113U]	-2.04
GACCAAUCUGCCCUCAGAGCUCGAGAACAUCUUCGGAUGCAGAGAAGGCAGGCUUCGGUGGCGCGAUAGCGCCAACGUCCUCAACCUCCAAUGCAUCCCACCACAUGAUGAUACCUGAAGAGCCUUGGUUUUUUG [G45A G113A]	-1.71
GACCAAUCUGCCCUCAGAGCUCGAGAACAUCUUCGGAUGCAGAGAAGUAAGGUUUCGGUGGCGCGAUAGCGCCAACGUCCUCAACCUCCAAUGCAUCCCACCACAUGAUGAUGCGUGAAGAGCCUUGGUUUUUUG [G45A G48U C49A C53U C115G]	-3.77
GACCAAUCUGCCCUCAGAGCUCGAGAACAUCUUCGGAUGCAGAGAAGGCAGGCUUCGGUGGCGCGAUAGCGCCAACGUCCUCAACCUCCAAUGCAUCCCACCACAUGAUGAUGCCUGAAGAGCUUUGGUUUUUUG [G45A C124U]	0.272
GACCAAUCUGCCCUCAGAGCUCGAGAACAUCUUCGGAUGCAGAGAAGGCAGGCUUCGGUGGCGCGAUAGCCCCAACGUCCUCAACCUCCAAUGCAUCCCAACACAUGAUGAUGCUUGAAGAGCCUUCGUUUUUUG [G45A G71C C101A C115U G127C]	-5.44
GACCAAUCUGCCCUCAGAGCUCGAGAACAUCUUCGGAUGCAGAGAAGUCAGGGUUCGGUGGCGCGAUAGCGACAACGUCCUCAACCUCCAAUGCAUCCCACCACAUGAUGAUGCCUGAAGAGCCUUGGUUUUUUG [G45A G48U C53G C72A]	-0.719
GACCAAUCUGCCCUCAGAGCUCGAGAACAUCUUCGGAUGCAGAGAAGGCAGGCUUCGGUGGCGCGAUAACGCCAACGUCCUCAACCACCAAUGCAUCCCACCACAUGAUGAUGCCUGAAGAGCCAUGGUUUUUUG [G45A G69A U87A U125A]	-3.37
GACCAAUCUGCCCUCAGAGCUCGAGAACAUCUUCGGAUGCAGAGAAGGCAGCCUUCUGUGGCGCGAUAGCGCCAACGUCCUCAACCUCCAAUGCAUCCCACCACAUGAUGAUGCCUGAAGAGCCUUGGUUUUUUG [G45A G52C G57U]	-2.04
GACCAAUCUGCCCUCAGAGCUCGAGAACAUCUUCGGAUGCAGAGAAGGCAGUCUUCGGUGGCGCGAUAGCGCCAACGUUCUCAACCUCCAAUGCCUCCCACCACAUGAUGAUGCCUGAAGCGCCUUGGUUUUUUG [G45A G52U C79U A95C A121C]	-0.812
GACCAAUCUGCCCUCAGAGCUCGAGAACAUCUUCGGAUGCAGAGAAGGCAGGCUUCGGUGGCGCGAUAGCGCCAACGUCCUCAACCUCCAAUGCAUCCCACCACAUGAUGAUGCCUGAAGAGCCUUGGUUAUUUG [G45A U131A]	-0.734
GACCAAUCUGCCCUCAGAGCUCGAGAACAUCUUCGGAUGCAGAGAAGGCAGGCUUCGGUGGCGCGAUAGCGCCAACGUCCUCAACCUCCAAUGCAUCCCACCACAUGAUGAUGCCUGAAGAGCCUUGGUUGUUUG [G45A U131G]	-0.996
GACCAAUCUGCCCUCAGAGCUCGAGAACAUCUUCGGAUGCAGAGAAGGCAGGCUUCGGUGGCGCGAUAUCGCCAACGUCCUCAACCUCCAAUGCAUCCCACCACAUGAUGAAGCCUGAAGAGCCUUGGUUUUUUG [G45A G69U U112A]	1.62
GACCAAUCUGCCCUCAGAGCUCGAGAACAUCUUCGGAUGCAGAGAAGGCAGGCUUCGGUGGCGCGAUAGCUCCAACGUCCUCAGCCUCCAAUGCAUCCCACCACAUGAUGAUGCCUGAAGAGCCUUGGUUUUUUG [G45A G71U A84G]	-2.48
GACCAAUCUGCCCUCAGAGCUCGAGAACAUCUUCGGAUGCAGAGAAGGCAAGCUUCGGUGGCGCGAUAGCGUCAACGUCCUCAACCUCCAAUGCAUCCCACCACAUGAUGAUGCCUGAAGAGCCUUGGUUUUUUG [G45A G51A C72U]	-3.6
GACCAAUCUGCCCUCAGAGCUCGAGAACAUCUUCGGAUGCAGAGAAGGCACGCUUCGGUGGCGCGAUAGCGCCAACGUCCUCAACCUCCAAUGCAUCCCACCACAUGAUGAUGCCUGAAGAGCCUUGGUUUUUUG [G45A G51C]	-5.06
GACCAAUCUGCCCUCAGAGCUCGAGAACAUCUUCGGAUGCAGAGAAGGCAGGCUUCGGUGGCGCGAUAGCGCCAACGUCCUCAACCUCCAAUGCAUCCCACCACAUGAUGAUACUUGAAGAGCCUUGGUUUUUUG [G45A G113A C115U]	-3.5

Variant	polymerase ribozyme fitness (log ratio)
GACCAAUCUGCCCUCAGAGCUCGAGAACAUCUUCGGAUGCAGAGAAGUCAGGCUUCGGUGGCGCGAUAGCGCCAACGUCCUCAACCUCCAAUACAUCCCACCACAUGAUGAUGCCUGAAGAGCCUUGGUUUUUUG [G45A G48U G93A]	-3.09
GACCAAUCUGCCCUCAGAGCUCGAGAACAUCUUCGGAUGCAGAGAAGGCAGGCUUCGGCGGCGCGAUAGCGCCAACGUCCUCAACAUCCAAUGCAUCCCACCACAUGAUGAUGCCUGAAGAGCCUUGGUUUUUUG [G45A U59C C86A]	-3.96
GACCAAUCUGCCCUCAGAGCUCGAGAACAUCUUCGGAUGCAGAGAAGGCAGGCUUCGGUGGCGCGAUAACGCCAACGUCCUCAACCUCCAAUGCAUCCCACCACAUGAGGAUGCCUGCAGAGCCUUGGUUUUUUG [G45A G69A U109G A118C]	-6.05
GACCAAUCUGCCCUCAGAGCUCGAGAACAUCUUCGGAUGCAGAGAAGGCAGGCUGCGGUGGCGCGAUAGCGCCAACAUCCUCAACCUCCAAUGCAUCCCACCACAUGAUGAUGCCUGAAGAGCCUUGGUUUUUUG [G45A U55G G77A]	-1.78
GACCAAUCUGCCCUCAGAGCUCGAGAACAUCUUCGGAUGCAGAGAAGGCAGGCUUCGGUAGCGCGAUAGCGCCAACGUCCUCAACCUCCAAUGCAUCCCACCACAUGAUGAUGCCUGAAGAGCCUUGGUUUUUUG [G45A G60A]	-1.47
GACCAAUCUGCCCUCAGAGCUCGAGAACAUCUUCGGAUGCAGAGAAGGCAGGCUUCGGGGGGGCGAUAGCGCCAACGUCCUCAACCUCCAAUGCAUCCCACCACAUGAUGAUGCCUGAAGAGCCUUGGUUUUUUG [G45A U59G C62G]	-3.84
GACCAAUCUGCCCUCAGAGCUCGAGAACAUCUUCGGAUGCAGAGAAGGCAGGCUUCGGUGGCGCGAUAGCGCCAACGUCCUCAACCUCCAAUGCAUCCCACCACAUGAUGAUGCCUGAAGAGCCUUGGUUUUUUU [G45A G135U]	-1.9
GACCAAUCUGCCCUCAGAGCUCGAGAACAUCUUCGGAUGCAGAGAAGGCAGGCUUCGGUGGCGCGAUAGCUCCAACGUCCUCAACCUCCAAUGCAUCCCACCACAUGAUGAUGCCUGAAGAGCCUUGGUUUUUUG [G45A G71U]	-0.591
GACCAAUCUGCCCUCAGAGCUCGAGAACAUCUUCGGAUGCAGAGAAGGCAGGCUUCGGUGGCGCGAUAGCCCCAACGUCCUCAACCUCCAAUGCAUCCCACCACAUGAUGAUGCCUGAAGAGCCUUGGUUUUUUG [G45A G71C]	-1.76
GACCAAUCUGCCCUCAGAGCUCGAGAACAUCUUCGGAUGCAGAGAAGGCAGGCUUCGGUGGCGCGAUAGCUCCAACGUCCUCAACCUCCAAUGCAUCCCACCACAUGAUGAUGCCUGAAAAGCCUUGGUUUUAUG [G45A G71U G120A U133A]	-0.0049
GACCAAUCUGCCCUCAGAGCUCGAGAACAUCUUCGGAUGCAGAGAAGUCAGGCCUGGGUGGCGCGAUAUCGCCAACGGCCUCAACCUCCAAUUCAUCCCACCACAUGAUGAUGCCUGAAGAGGCUUGGUAUUUUG [G45A G48U U54C C56G G69U U78G G93U C123G U130A]	-2.55
GACCAAUCUGCCCUCAGAGCUCGAGAACAUCUUCGGAUGCAGAGAAGGCAGGCUUCGGCGGGGCGAUAGCGCCAACGUCCUCAACCUCCAAUGCAUCCCACCACAUGAUGAUGCCUGAAGAGCCUUGGUUUUUUG [G45A U59C C62G]	-5.53
GACCAAUCUGCCCUCAGAGCUCGAGAACAUCUUCGGAUGCAGAGAAGGCAAGCUUCGGUGGCGCGAUAGCGCCAACGUGCUUAACUUCCAAUGCAUCCCACCACAUGAUGAAGCAUGAAGAGCCUUGGUUUUUUG [G45A G51A C79G C82U C86U U112A C115A]	-7.28
GACCAAUCUGCCCUCAGAGCUCGAGAACAUCUUCGGAUGCAGAGAAGGCAGGCUUCGGUGGCGCGAAAGCGCCAACGUCCUCAACCUCCAAUGCAUCCCACAACAUGAUGAUGCCUGAAAAGCCUUGGUUUUUUG [G45A U67A C102A G120A]	-6.86
GACCAAUCUGCCCUCAGAGCUCGAGAACAUCUUCGGAUGCAGAGAAGGCAGGCUUCGGUGGCGCGAUAGCGCCAACGUCCUCAACCUCCAAUGCAUCCCACCACAUGAUGAUGCCUGAAGAGCCUUGAUUUUUUG [G45A G128A]	-2.84
GACCAAUCUGCCCUCAGAGCUCGAGAACAUCUUCGGAUGCAGAGAAGUCAGGCUUCGGUGGCGCGAUAGCGCCAACGUCCUCAACCUCCAAUGCAUCCCACCACAUGAUGAGGCCUGAAGAGCCUUGGUUUUUUG [G45A G48U U112G]	-2.7
GACCAAUCUGCCCUCAGAGCUCGAGAACAUCUUCGGAUGCAGAGAAGGCAGGCUUCGGUGGCGCGAUAGCGCCAACGUCCUCAACCUCCAAUGCAUCCCACCACAUGAUGAUGCCUGAAGAGCCUUGGUCUUUUG [G45A U130C]	-1.02
GACCAAUCUGCCCUCAGAGCUCGAGAACAUCUUCGGAUGCAGAGAAGGCAGGCUUCGGUGGCGCGAUAUCGCCAACGUCCUCAACCUCCAAUGCAUCCCACCACAUGAUGAUGCCUGAAGAGCCUUGGUUUUUUG [G45A G69U]	1.63
GACCAAUCUGCCCUCAGAGCUCGAGAACAUCUUCGGAUGCAGAGAAGGCAGGCAUUUGUGGCGCGAUAGCGCCAACGUCCUCAACCGCCAGUACAUCCCACCACAUGAUGAUGCCUGAAGAGCCUUGGUUUUUUG [G45A U54A C56U G57U U87G A91G G93A]	-3.65
GACCAAUCUGCCCUCAGAGCUCGAGAACAUCUUCGGAUGCAGAGAAGGCAGGCUUCGGUGGCGCGAUAGCGCCAACGUCCUCAACCUCCAAUGCAUCCCACCACACGAUGAUGCCUGAAGAGCCUUGGUUUUUUG [G45A U106C]	-1.09
GACCAAUCUGCCCUCAGAGCUCGAGAACAUCUUCGGAUGCAGAGAAGGCAGUCUUCGGUGGCGCGAUAGCGCCAACGUCCUCAACCUCCAAUGCAUCCCACCACAUGAUGAUGCCUGAAGAGCCUUGGUGUUUUG [G45A G52U U130G]	-1.91
